Source: paper PMC4196048 (The Journal of Membrane Biology, 2014)

Target: the molecule itself
Assay: negative-stain transmission electron microscopy

B1: LPS-free OmpF refolded from inclusion bodies, reconstituted into Amphipol A8-35 (natural protein)
chain: MEIYNKDGNKVDLYGKAVGLHYFSKGNGENSYGGNGDMTYARLGFKGETQINSDLTGYGQWEYNFQGNNSEGADAQTGNKTRLAFAGLKYADVGSFDYGRNYGVVYDALGYTDMLPEFGGDTAYSDDFFVGRVGGVATYRNSNFFGLVDGLNFAVQYLGKNERDTARRSNGDGVGGSISYEYEGFGIVGAYGAADRTNLQEAQPLGNGKKAEQWATGLKYDANNIYLAANYGETRNATPITNKFTNTSGFANKTQDVLLVAQYQFDFGLRPSIAYTKSKAKDVEGIGDVDLVNYFEVGATYYFNKNMSTYVDYIINQIDSDNKLGVGSDDTVAVGIVYQF
B1: binds.
